In patent US9416162B2, “Peptides having reduced toxicity that stimulate cholesterol efflux” (The Regents of the University of California, priority 2013, dated 2016):
“Also recorded” adds a separate entry of the source. Non-standard residues stand in square brackets, D forms with d. No end group written: not given here. Cit = NC(=O)NCCC[C@H](N)C(=O)O

How the values were obtained:
[1] = system: cynomolgus monkeys; assay: IV infusion toxicity in cynomolgus monkeys (ALT, AST, CPK, bilirubin); format: in vivo, cynomolgus monkey
Experimental: Male (upper panel) and female lower panel) cynomolgus monkeys were administered ATI-5261 at a fixed dose of 100 mg/kg by IV infusion (60 min) every 96 hours for a total of 4 injections. Blood was collected 24 h post infusion and levels of plasma ALT, AST, creatine kinase (CPK), and total and indirect bilirubin were determined Values are expressed as a fold-increase vs. pre-dose levels.

[2] = biological target: T1, ABCA1 (Mus musculus, UniProt P41233); assay: ABCA1-dependent [3H]cholesterol efflux from J774 macrophages with and without cAMP; format: cell-based
T1 construct: treated (18 h) with a cAMP analog to induce ABCA1 protein expression; endogenous in cells; host or cells: J774 macrophages
Source text: Suitable cholesterol efflux assays are described in, e.g., Bielicki, J. K and Oda, M. N., Biochemistry, 41:2089-2096 (2002); Jia et al., Biochem. Biophys. Res. Common., 297:206-213 (2002). In some embodiments, a polypeptide known to mediate cholesterol efflux (e.g., helix 9/10 of Apo A-I) is used to screen for additional mediators of cholesterol efflux in a cell based assay. For example, cell lines in which cholesterol efflux can be enhanced using a cAMP analog that up-regulates ABCA1 protein expression (e.g., J774 macrophages) can conveniently be used to assess the ability of a polypeptide of the present invention to mediate cholesterol efflux. The cells are incubated with labeled cholesterol (e.g., [^3H]cholesterol) under conditions appropriate for cholesterol uptake by the cells. Thus, cAMP or cAMP analogs (e.g., CPT-cAMP) are incubated with the cells for a suitable time before the initiation of cellular cholesterol efflux, i.e., prior to contacting the cells with a test polypeptide. Measurement of labeled cholesterol appearing in the medium is used to determine the cholesterol efflux mediating activity of the test polypeptide.
Aliphatic analogs of ATI-5261 lacking phenylalanine residues retained potent ABCA1 selective cholesterol efflux activity (FIG. 7). J774 macrophages were labeled (48 h) with [^3H]cholesterol and treated (18 h) with a cAMP analog to induce ABCA1 protein expression; cells incubated in the absence of cAMP (left bars) served as controls. […] Peptides were used at a concentration of 30 μg/ml, which was maximal for promoting cholesterol efflux activity. Panel B—Dependence of cholesterol efflux on the concentration of peptides. […] Results are expressed as the difference in cholesterol efflux (%/4 h) observed using cAMP treated vs. non-treated J774 cells. Values are means±SD, n=3.

[3] = biological target: T2, ABCG1 (Homo sapiens, UniProt P45844); assay: ABCG1 mediated cholesterol efflux from BHK cells stably transfected with ABCG1; format: cell-based; settings: BHK cells ABCG1 vs. mock transfected, 50 μg peptide/ml serum-free medium
T2 construct: expressed in transfected cells; host or cells: BHK cells, stably transfected
Experimental: To further evaluate potential anti-atherogenic mechanisms of CS6253, BHK cells stably transfected with ABCG1 and mock-transfected control cells were labeled with [3H]cholesterol and used in efflux experiments. The citrulline form of LeuATI-5261 (CS6253) lipidated with POPC and ATI-5261 were used as cholesterol efflux acceptors at 50 μg peptide/ml serum-free medium. Panel A—Time-course for ABCG1 mediated cholesterol efflux from cells to lipid-free CS6253 peptide or CS6253:POPC complexes. […] Panel B—Comparison between CS6253 and ATI-5261 in mediating cellular cholesterol efflux via ABCG1. [3H]cholesterol labeled BHK cells (ABCG1 vs. mock transfected) were incubated with either lipid-free peptide or peptides formulated with POPC.

[4] = system: human plasma; assay: Cholesterol efflux activity of human plasma treated with lipid-free peptide (J774 cells); format: cell-based; settings: human plasma with 300 μg/ml peptide 5 minutes (4° C.), diluted to 1%, cAMP treated J774 cells, vs vehicle-treated plasma
Experimental: To test whether CS6253 exerts anti-atherogenic effects in a biological milieu, human plasma was exposed (5 min) to lipid-free peptide. Interactions of CS6253 with HDL and activity of plasma to stimulate cholesterol efflux was assessed, using J774 macrophages labeled with [^3H]cholesterol. Panel A—Cholesterol efflux activity of plasma treated with lipid-free peptides. Human plasma was incubated with 300 μg/ml peptides for 5 minutes (4° C.), diluted to 1% in serum-free RPMI-1640 culture medium and immediately added to [^3H]cholesterol-labeled J774 cells. […] Panel B—Induction of preβ HDL upon treatment of human plasma with CS6253. Plasma was exposed to a small amount of peptide relative to endogenous apoA-I (1:10 mole ratio, respectively) and formation of preβ HDL assessed by 2D non-denaturing gradient gel electrophoresis (NDGGE) and western blot analysis. […] This is consistent with no peptide being associated with the preβ HDL fraction, indicating the particles were authentic preβ particles composed on endogenous apoA-I.

[5] = biological target: T1, ABCA1; assay: ABCA1-dependent [3H]cholesterol efflux from J774 macrophages with and without cAMP; format: cell-based; parameters: ABCA1-dependent cholesterol efflux: dose or concentration left out as unconfirmed
[6] = cAMP treated J774 cells, increasing concentration of peptides, 4 h

T1 sequence (P41233 whole entry): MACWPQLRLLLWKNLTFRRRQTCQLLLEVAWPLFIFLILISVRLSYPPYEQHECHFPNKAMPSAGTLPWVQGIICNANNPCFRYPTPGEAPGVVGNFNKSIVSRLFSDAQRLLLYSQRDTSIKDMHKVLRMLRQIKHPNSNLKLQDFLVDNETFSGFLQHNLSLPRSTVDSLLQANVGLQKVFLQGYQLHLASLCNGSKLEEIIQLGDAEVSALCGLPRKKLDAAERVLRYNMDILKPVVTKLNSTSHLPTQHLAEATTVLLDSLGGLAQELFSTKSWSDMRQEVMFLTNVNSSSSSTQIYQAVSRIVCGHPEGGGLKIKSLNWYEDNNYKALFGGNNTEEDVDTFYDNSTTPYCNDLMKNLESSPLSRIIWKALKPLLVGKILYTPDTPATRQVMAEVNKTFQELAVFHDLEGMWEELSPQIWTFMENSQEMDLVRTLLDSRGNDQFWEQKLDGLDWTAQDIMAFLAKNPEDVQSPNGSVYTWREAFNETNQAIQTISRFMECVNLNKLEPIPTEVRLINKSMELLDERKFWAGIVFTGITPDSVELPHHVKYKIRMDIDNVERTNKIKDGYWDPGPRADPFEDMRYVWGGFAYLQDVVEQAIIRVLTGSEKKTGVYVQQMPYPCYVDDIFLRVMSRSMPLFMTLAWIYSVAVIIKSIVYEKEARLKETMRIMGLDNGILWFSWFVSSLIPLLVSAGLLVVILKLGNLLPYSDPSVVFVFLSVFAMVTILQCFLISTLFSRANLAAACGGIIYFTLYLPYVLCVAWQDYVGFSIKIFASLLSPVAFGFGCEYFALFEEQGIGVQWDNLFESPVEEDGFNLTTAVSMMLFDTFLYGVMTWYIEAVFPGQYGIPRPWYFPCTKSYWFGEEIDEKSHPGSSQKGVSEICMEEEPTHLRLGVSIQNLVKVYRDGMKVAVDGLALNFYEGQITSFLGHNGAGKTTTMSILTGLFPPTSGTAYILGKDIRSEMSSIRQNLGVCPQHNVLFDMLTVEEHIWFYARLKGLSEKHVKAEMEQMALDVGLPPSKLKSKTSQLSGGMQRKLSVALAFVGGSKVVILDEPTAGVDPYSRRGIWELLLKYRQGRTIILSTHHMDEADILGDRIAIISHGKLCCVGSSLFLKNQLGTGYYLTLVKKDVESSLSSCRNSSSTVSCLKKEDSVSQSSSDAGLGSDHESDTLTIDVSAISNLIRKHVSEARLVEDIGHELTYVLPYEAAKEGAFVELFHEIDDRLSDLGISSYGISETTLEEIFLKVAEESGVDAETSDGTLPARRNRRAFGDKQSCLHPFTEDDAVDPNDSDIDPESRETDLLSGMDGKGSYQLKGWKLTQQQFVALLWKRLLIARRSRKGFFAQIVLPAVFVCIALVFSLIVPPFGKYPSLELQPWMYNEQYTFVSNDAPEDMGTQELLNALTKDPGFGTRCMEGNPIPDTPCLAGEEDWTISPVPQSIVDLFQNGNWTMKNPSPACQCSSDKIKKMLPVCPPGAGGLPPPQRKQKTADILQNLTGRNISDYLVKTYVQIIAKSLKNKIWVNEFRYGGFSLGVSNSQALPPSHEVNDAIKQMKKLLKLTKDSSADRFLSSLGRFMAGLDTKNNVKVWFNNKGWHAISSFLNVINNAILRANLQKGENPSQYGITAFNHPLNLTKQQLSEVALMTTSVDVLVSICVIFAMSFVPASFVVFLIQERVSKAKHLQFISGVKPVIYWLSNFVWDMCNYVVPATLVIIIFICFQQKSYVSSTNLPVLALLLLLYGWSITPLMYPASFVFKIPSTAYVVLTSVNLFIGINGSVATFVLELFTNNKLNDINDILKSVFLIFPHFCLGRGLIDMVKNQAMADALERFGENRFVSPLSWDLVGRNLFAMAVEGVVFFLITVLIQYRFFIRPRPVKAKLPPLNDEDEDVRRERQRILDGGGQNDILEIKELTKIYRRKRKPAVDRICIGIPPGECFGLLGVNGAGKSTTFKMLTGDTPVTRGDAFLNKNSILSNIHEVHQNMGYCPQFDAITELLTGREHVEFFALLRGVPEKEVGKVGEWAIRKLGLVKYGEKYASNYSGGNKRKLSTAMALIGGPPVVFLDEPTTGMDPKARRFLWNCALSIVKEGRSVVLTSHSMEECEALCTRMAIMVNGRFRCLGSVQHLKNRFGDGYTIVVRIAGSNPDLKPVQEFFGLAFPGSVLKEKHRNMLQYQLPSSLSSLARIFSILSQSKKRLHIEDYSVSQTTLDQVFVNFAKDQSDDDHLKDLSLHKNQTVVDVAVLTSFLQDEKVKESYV

| Substance | cytotoxic response (ALT, AST, CPK, bilirubin) ([1]; 100 mg/kg IV infusion (60 min) every 96 hours, 4 injections, blood 24 h post infusion) | plasma creatine kinase (CPK), fold-increase vs. pre-dose levels ([1]; 100 mg/kg IV infusion, after the first infusion, male and female monkeys) | peptide concentration at saturation in cholesterol efflux [2, 6] | ABCG1 mediated cholesterol efflux [3] | capacity of peptide-treated plasma to stimulate cholesterol efflux via ABCA1 [4] | ABCA1-dependent cholesterol efflux activity ([5]; J774 macrophages with/without cAMP, peptide 10 μg/ml) | cholesterol efflux activity compared with parent ATI-5261 ([2]; J774 cells with and without cAMP) | Km (cholesterol efflux potency) on molar basis ([2]; cAMP treated J774, lipid-free peptide, 4 h, Michaelis Menten equation) | Km for cholesterol efflux [2, 6] | ABCA1-dependent cholesterol efflux ([5]; J774 with/without cAMP, acceptors lipid-free, 4 h) |
| --- | --- | --- | --- | --- | --- | --- | --- | --- | --- | --- |
| ATI-5261: HDL mimetic peptide, parent peptide; triglyceride elevating and muscle toxic peptide used as positive control (EVRSKLEEWFAAFREFAEEFLARLKS) [reference compound] | induced a cytotoxic response | marked increase | roughly 3 μg/ml | poorly active | greater capacity to stimulate cholesterol efflux | overall greater efflux response |  |  |  |  |
| EVCitSKLEEWLAALCitELAEELLARLKS (SEQ ID NO:2) (EV[Cit]SKLEEWLAAL[Cit]ELAEELLARLKS) [CS6253, citrulline form of LeuATI-5261, R3,14→Citrulline, 26-mer] |  |  | 3 µg/mL | relatively poor activity | greater capacity to stimulate cholesterol efflux |  | identical to that observed using the parent ATI-5261 peptide | near apolipoproteins molar potency | high potency; also recorded: low Km | stimulated ABCA1-dependent cholesterol efflux similar to native apolipoproteins |
